Patent US20240174727A1, “LONG-ACTING NATRIURETIC PEPTIDES AND USES THEREOF” (Eli Lilly and Company, priority 2022, published 2024)
Numbered stars: 1 amine (or outer) side, 2 acyl side, 3 side chain; on linkers, the order of the positions; unused ones are H or OH. Bridge positions count the residues as written; N and C are the ends. Square brackets hold non-standard residues; d marks the D form. * marks the point of attachment. thioacetal = thioacetal linkage between two cysteines (intrachain bond at the bracketed Cys); C20 diacid = O=C(O)CCCCCCCCCCCCCCCCCCC(=O)*; γGlu = O=C(O)[C@H](CCC(=O)[*:2])N[*:1]; βAla = NCCC(=O)O

Columns and labels:
human NPRA = biological target: T1, human NPRA (human, UniProt P16066 33-1061); experiment: cell-based or functional assay
T1 sequence (looked up): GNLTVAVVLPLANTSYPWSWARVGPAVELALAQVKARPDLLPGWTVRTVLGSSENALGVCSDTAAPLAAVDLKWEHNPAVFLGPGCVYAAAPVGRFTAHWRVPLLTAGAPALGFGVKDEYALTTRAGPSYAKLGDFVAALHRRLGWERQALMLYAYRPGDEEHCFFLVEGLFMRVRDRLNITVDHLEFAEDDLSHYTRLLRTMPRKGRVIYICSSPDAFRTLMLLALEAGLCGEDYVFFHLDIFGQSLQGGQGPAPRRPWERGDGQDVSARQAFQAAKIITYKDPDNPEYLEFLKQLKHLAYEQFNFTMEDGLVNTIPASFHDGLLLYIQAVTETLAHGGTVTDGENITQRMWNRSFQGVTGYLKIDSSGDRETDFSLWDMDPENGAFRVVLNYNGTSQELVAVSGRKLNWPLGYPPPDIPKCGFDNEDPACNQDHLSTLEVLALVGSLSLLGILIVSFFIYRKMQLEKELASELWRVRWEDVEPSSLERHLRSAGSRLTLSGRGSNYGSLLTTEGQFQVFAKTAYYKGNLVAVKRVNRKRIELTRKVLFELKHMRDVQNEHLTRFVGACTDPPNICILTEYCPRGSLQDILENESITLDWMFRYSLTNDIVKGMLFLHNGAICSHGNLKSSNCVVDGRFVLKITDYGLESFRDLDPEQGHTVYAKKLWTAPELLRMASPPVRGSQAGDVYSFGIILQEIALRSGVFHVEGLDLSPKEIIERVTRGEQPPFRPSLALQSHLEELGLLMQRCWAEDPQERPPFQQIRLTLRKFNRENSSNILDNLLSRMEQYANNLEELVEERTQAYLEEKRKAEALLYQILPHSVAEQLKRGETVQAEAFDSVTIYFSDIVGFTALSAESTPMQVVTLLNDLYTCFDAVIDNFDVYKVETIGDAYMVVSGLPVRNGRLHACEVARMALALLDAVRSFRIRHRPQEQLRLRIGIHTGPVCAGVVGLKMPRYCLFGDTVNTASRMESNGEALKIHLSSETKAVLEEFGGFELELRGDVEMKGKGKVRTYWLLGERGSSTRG

rat NPRA = biological target: T2, rat NPRA (rat, UniProt P18910 29-1057); experiment: cell-based or functional assay
T2 sequence (looked up): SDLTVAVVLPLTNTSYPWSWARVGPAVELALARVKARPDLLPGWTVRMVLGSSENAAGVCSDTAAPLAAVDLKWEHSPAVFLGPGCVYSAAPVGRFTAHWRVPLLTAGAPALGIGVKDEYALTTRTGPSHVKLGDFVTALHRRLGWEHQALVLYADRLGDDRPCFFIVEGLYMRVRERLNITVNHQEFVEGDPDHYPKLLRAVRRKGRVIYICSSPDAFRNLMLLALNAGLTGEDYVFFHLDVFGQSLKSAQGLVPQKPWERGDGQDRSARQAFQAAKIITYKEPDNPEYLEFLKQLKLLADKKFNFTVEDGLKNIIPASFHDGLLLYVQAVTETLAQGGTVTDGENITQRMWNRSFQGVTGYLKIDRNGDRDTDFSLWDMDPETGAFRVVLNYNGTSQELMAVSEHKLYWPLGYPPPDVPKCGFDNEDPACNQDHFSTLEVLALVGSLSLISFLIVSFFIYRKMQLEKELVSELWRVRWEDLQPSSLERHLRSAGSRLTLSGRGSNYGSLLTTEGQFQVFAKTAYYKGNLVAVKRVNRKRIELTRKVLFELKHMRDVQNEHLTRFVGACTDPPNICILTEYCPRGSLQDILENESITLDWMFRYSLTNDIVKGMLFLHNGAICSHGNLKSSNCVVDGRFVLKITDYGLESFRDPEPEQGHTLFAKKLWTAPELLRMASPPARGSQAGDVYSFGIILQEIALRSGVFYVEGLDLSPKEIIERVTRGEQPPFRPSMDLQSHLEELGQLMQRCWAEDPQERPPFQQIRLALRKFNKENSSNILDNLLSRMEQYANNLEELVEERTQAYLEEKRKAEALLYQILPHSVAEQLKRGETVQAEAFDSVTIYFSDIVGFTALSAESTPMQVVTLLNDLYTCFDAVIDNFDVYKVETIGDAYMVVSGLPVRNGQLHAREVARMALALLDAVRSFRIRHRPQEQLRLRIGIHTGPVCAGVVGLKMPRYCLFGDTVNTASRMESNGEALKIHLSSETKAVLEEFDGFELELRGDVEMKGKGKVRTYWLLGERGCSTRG

| Binder | cGMP Assay (EC50, pM) w/BSA, hNPRA (human NPRA) [pM] | cGMP Assay (EC50, pM) w/Casein, hNPRA (human NPRA) [pM] | cGMP Assay (EC50, pM) w/BSA, rNPRA (rat NPRA) [pM] | cGMP Assay (EC50, pM) w/Casein, rNPRA (rat NPRA) [pM] |
| --- | --- | --- | --- | --- |
| {C20 diacid-γGlu}-EKEKEKGEK[βAla]RSSCFGKRIDRIGHYSGLGCPSFRHGSPSSGAPPPS-NH2 (bridge 14-30 via thioacetal) [HOOC-(CH2)18-CO-(γGlu)-EKEKEKGEK-βAla-RSS[CFGKRIDRIGHYSGLGC]PSFRHGSPSSGAPPPS-NH2] | 11600 | 282 | 138000 | 1340 |
| EKXRSSCFGKRIDRIGHYSGLGCPSFRHGGKSSGAPPPS (N-terminus acylated with HOOC-(CH2)18-CO-(γGlu)-; PEG24 after EKEKEKG; βAla; thioacetal linkage between the two bracketed Cys; C-terminal amide) [HOOC-(CH2)18-CO-(γGlu)-EKEKEKG-PEG24-EK-βAla-RSS[CFGKRIDRIGHYSGLGC]PSFRHGGKSSGAPPPS-NH2] | 3490 |  |  |  |
| SXRRSSCFGKRIDRIGHYSGLGCPSFRHGGKSSGAPPPS (N-terminus acylated with HOOC-(CH2)18-CO-(γGlu)-; (AEEA)6 after EKEKEKG; 4Pal; thioacetal linkage between the two bracketed Cys; C-terminal amide) [HOOC-(CH2)18-CO-(γGlu)-EKEKEKG-(AEEA)6-S-4Pal-RRSS[CFGKRIDRIGHYSGLGC]PSFRHGGKSSGAPPPS-NH2] | 4470 | 527 | 312000 | 2630 |
| EKXRSSCFGKRIDRIGHYSGLGCPSFRHGSPSSGAPPPS (N-terminus acylated with HOOC-(CH2)18-CO-(γGlu)-; PEG24 after EKEKEKG; βAla; thioacetal linkage between the two bracketed Cys; C-terminal amide) [HOOC-(CH2)18-CO-(γGlu)-EKEKEKG-PEG24-EK-βAla-RSS[CFGKRIDRIGHYSGLGC]PSFRHGSPSSGAPPPS-NH2] | 4330 | 741 | 187000 | 9630 |
| SXXRSSCFGGRIDRIGHYSGLGCPSFRHGSPSSGAPPPS (N-terminus acylated with HOOC-(CH2)18-CO-(γGlu)-; (AEEA)6 after EKEKEKG; 4Pal; βAla; thioacetal linkage between the two bracketed Cys; C-terminal amide) [HOOC-(CH2)18-CO-(γGlu)-EKEKEKG-(AEEA)6-S-4Pal-βAla-RSS[CFGGRIDRIGHYSGLGC]PSFRHGSPSSGAPPPS-NH2] |  | 1530 |  |  |
